Data published in patent publication US20160009817A1 (Bayer, published 2016).

T1: human tissue factor pathway inhibitor (TFPI) (human, UniProt P10646 29-282, limits assumed)
T1 construct: also called Human TFPI
T1 sequence (looked up): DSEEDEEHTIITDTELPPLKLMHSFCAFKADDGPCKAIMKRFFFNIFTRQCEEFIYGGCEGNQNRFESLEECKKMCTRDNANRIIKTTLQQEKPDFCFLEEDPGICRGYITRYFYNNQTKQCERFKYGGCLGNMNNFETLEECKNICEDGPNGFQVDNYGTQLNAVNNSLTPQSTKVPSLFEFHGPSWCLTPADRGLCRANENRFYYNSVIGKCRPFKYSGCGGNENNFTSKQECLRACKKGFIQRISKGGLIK

B1: 3E10scFv-gA200 (bispecific antibody, human IgG2, lambda)
heavy: QVQLVESGGTLVQPGGSLRLSCAASGFSFTDAWMSWVRQAPGKELEWVSSISGSGGSTYYAGSVKGRFTISRDNSKNTLYLQMNSLRAEDTAVYYCARVLSLTDYYWYGMDVWGQGTLVTVGGGGSGGGGSGGGGSNFMLTQPHSVSASPGKTVTISCTRSSGSVASYYVQWYQQRPGSSPTTVIYEDNHRPSGVPDRFSGSIDTSSNSASLTISGLKTEDEADYYCQSYDSNNLVVFGGGTKLTVLGEGRTATSGGGLVQPGGSLRLSCAASGFTFSSYGMDWVRQAPGKGLEWVSSIRGSRGSTYYADSVKGRFTISRDNSKNTLYLQMNSLRAEDTAVYYCARLYRYWFDYWGQGTLVTVSSASTKGPSVFPLAPCSRSTSESTAALGCLVKDYFPEPVTVSWNSGALTSGVHTFPAVLQSSGLYSLSSVVTVPSSNFGTQTYTCNVDHKPSNTKVDKTVERKCCVECPPCPAPPVAGPSVFLFPPKPKDTLMISRTPEVTCVVVDVSHEDPEVQFNWYVDGVEVHNAKTKPREEQFNSTFRVVSVLTVVHQDWLNGKEYKCKVSNKGLPAPIEKTISKTKGQPREPQVYTLPPSREEMTKNQVSLTCLVKGFYPSDIAVEWESNGQPENNYKTTPPMLDSDGSFFLYSKLTVDKSRWQQGNVFSCSVMHEALHNHYTQKSLSLSPG
light: SYELTQPPSVSVSPGQTARITCSGDNLPKYYAHWYQQKPGQAPVVVIFYDVNRPSGIPERFSGSNSGNTATLTISGTQAMDEADYYCQAWWSSTPVFGGGTKLTVLGQPKAAPSVTLFPPSSEELQANKATLVCLISDFYPGAVTVAWKADSSPVKAGVETTTPSKQSNNKYAASSYLSLTPEQWKSHRSYSCQVTHEGSTVEKTVAPTECS
notes: scFv against TF fused on the N-terminus of the heavy chain of anti-TFPI IgG gA200; made in CHO cells; also called 3E10sc-gA200
B2: Ter119scFv-gA200 (bispecific antibody, human IgG2, lambda)
heavy: QVKLQESGGGLVQPGGSLKLSCVASGFTFRDHWMNWVRQAPGKTMEWIGDIRPDGSDTNYAPSVRNRFTISRDNARSILYLQMSNMRSDYTATYYCVRDSPTRAGLMDAWGQGASVTVLTGGGGSGGGGSGGGGSDIQMIQSPSVLSASVGDRVTLNCKASQNINKYLNWYQQKLGEAPKVLIYNTNNLQTGIPSRFSGSGSGTDFTLTISSLQPEDFATYFCFQHYTWPTFGGGTKLELKEGRTATSGGGLVQPGGSLRLSCAASGFTFSSYGMDWVRQAPGKGLEWVSSIRGSRGSTYYADSVKGRFTISRDNSKNTLYLQMNSLRAEDTAVYYCARLYRYWFDYWGQGTLVTVSSASTKGPSVFPLAPCSRSTSESTAALGCLVKDYFPEPVTVSWNSGALTSGVHTFPAVLQSSGLYSLSSVVTVPSSNFGTQTYTCNVDHKPSNTKVDKTVERKCCVECPPCPAPPVAGPSVFLFPPKPKDTLMISRTPEVTCVVVDVSHEDPEVQFNWYVDGVEVHNAKTKPREEQFNSTFRVVSVLTVVHQDWLNGKEYKCKVSNKGLPAPIEKTISKTKGQPREPQVYTLPPSREEMTKNQVSLTCLVKGFYPSDIAVEWESNGQPENNYKTTPPMLDSDGSFFLYSKLTVDKSRWQQGNVFSCSVMHEALHNHYTQKSLSLSPG
light: B1 light
notes: scFv against RBC fused on the N-terminus of the heavy chain of anti-TFPI IgG gA200; made in CHO cells; also called Ter119sc-gA200; T119sc-gA200
B3: gA200 (antibody, human IgG2, lambda, V domains shown)
VH: EVQLVESGGGLVQPGGSLRLSCAASGFTFSSYGMDWVRQAPGKGLEWVSSIRGSRGSTYYADSVKGRFTISRDNSKNTLYLQMNSLRAEDTAVYYCARLYRYWFDYWGQGTLVTVSS
VL: SYELTQPPSVSVSPGQTARITCSGDNLPKYYAHWYQQKPGQAPVVVIFYDVNRPSGIPERFSGSNSGNTATLTISGTQAMDEADYYCQAWWSSTPVFGGGTKLTVLG
modifications: Fc N-glycan
notes: Human anti-TFPI IgG from human antibody libraries, optimised; no masking domain; also called parental anti-TFPI antibody gA200; unmodified anti-TFPI antibody

Experiments:
[1] = target: T1, human tissue factor pathway inhibitor …; assay: SPR (Biacore) kinetics, human TFPI immobilised
Experimental: (§1) Human TFPI was immobilized on CM4 or CM5 chip using amine coupling kit based on manufacturer's instruction. Anti-TFPI pro-drug antibodies or parental anti-TFPI antibody were flowed through the system with 10 μg/mL antibody with or without 15 μg/mL human serum albumin (HSA). The binding level was measure at 2 seconds after completion of each injection. In kinetics assay, antibodies with a series of concentrations were injected, followed by 30-minute dissociation time. The dissociation and association rate of the antibodies were modeled using BiaEvaluation software.

[2] = target: T1, human tissue factor pathway inhibitor …; assay: SPR (Biacore) kinetics, human TFPI immobilised; reference gA200
Experimental: as §1

[3] = target: T1, human tissue factor pathway inhibitor …; assay: SPR (Biacore), TFPI; antibody alone (reference)
[4] = target: T1, human tissue factor pathway inhibitor …; assay: SPR (Biacore), TFPI; with HSA against antibody alone
[5] = target: T1, human tissue factor pathway inhibitor …; assay: SPR (Biacore) kinetics, human TFPI immobilised; antibody with HSA
Experimental: as §1

[6] = target: T1, human tissue factor pathway inhibitor …; assay: SPR (Biacore), TFPI; with monkey serum albumin against antibody alone
[7] = target: T1, human tissue factor pathway inhibitor …; assay: SPR (Biacore) kinetics, human TFPI immobilised; antibody with HSA; reference gA200
Experimental: as §1

Binder | Kd [1] [nM] | Affinity decrease (fold) [2] [fold] | Affinity decrease (fold) [3] [fold] | Affinity decrease (fold) [4] [fold] | Kd [5] [nM] | Affinity decrease (fold) [6] [fold] | Affinity decrease (fold) [7] [fold]
B1 | 0.519 | 29.7 |  |  |  |  | 
B2 | 0.256 | 14.7 |  |  |  |  | 
B3 | 0.0175 | 1 | 1 | 0.7 | 0.0181 | 0.5 | 1.04
